Test results as given in patent US20240409645A1 (DUALYX, published 2024).
Where two headings read alike, the source gives them in different places.

Columns and labels:
[1] = biological target: T1, human IL-2 receptor (IL-2Rα/IL-2Rβ/γc) (human, UniProt P01589 22-272; P14784 27-551; P31785 23-369); test: cell-based or functional assay
T1 sequence 1: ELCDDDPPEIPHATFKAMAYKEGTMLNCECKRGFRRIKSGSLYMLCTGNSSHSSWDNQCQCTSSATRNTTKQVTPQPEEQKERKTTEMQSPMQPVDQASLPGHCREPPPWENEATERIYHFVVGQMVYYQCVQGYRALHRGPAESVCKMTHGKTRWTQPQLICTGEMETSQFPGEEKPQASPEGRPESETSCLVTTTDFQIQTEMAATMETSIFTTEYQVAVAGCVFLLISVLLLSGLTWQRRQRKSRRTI
T1 sequence 2: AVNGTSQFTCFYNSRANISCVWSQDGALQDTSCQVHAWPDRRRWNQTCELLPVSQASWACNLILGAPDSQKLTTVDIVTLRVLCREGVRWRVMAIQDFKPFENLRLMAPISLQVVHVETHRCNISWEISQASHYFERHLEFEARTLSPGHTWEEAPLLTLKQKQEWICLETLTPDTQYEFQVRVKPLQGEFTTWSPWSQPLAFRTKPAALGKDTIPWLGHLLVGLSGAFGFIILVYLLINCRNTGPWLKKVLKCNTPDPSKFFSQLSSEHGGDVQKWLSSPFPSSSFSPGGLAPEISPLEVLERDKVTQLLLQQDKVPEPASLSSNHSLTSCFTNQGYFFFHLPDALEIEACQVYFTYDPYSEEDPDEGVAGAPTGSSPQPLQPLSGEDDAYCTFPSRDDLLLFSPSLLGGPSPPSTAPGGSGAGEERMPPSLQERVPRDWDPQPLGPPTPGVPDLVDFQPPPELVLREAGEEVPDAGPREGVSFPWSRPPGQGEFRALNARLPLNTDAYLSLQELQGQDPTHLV
T1 sequence 3: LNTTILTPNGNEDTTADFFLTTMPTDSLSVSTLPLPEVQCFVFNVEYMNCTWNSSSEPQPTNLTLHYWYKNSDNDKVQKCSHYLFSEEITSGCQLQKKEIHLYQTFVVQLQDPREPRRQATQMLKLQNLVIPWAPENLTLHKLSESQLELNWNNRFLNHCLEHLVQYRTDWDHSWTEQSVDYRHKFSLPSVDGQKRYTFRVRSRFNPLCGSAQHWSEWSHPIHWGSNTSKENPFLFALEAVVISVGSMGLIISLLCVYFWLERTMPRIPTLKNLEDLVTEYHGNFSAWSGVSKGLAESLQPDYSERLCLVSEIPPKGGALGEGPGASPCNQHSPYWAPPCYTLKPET

[2] = biological target: T1, human IL-2 receptor (IL-2Rα/IL-2Rβ/γc); test: cell-based or functional assay; remark: listed apart in the source
human IL-2Rβ [3] = biological target: T2, human IL-2Rβ (human, UniProt P14784 27-240, limits assumed); test: SPR, P.E. off-rate
T2 construct: recombinant protein, coated or immobilised; also called hu IL-2R; IL-2R beta
T2 sequence: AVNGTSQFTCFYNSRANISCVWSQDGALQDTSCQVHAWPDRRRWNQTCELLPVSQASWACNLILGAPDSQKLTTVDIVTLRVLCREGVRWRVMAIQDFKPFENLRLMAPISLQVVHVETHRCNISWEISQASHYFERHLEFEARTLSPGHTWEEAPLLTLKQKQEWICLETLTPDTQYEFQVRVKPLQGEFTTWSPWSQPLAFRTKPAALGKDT
Description: SPR was performed to determine dissociation rates using Biacore 3000 instrument (GE Healthcare). Briefly, human and mouse IL-2R proteins were immobilized on carboxylmethyl dextran sensor chip (CM5) at approximately 2500 RUs using amine coupling in acetate buffer (GE Healthcare). The VHH-containing P.E. were loaded with a flow rate of 30 uL/min and the off-rates were measured over a 120s period.

human IL-2Rβ [4] = biological target: T2, human IL-2Rβ; test: P.E. ELISA, coated protein
Description: In a binding ELISA, human or mouse IL-2Rα, IL-2Rβ and IL-2Rγ proteins were coated directly on maxisorp microtiter plates overnight at 4° C. Free binding sites were blocked using 4% Marvel in PBS for 1 hour. Next, 1:5 dilution of P.E. in 1% Marvel/PBS were added to wells and incubated for 1 hour. […] Binding specificity was determined based on O.D. at 450 nm values compared to negative controls.

B1: DC00060 (other)
chain 1: QVQLVESGGGLVQPGGSLRLSCATSGFTFRNNFMSWVRQAPGKGLEWVSTISYGGESTTYAESVKGRFTISRDNAKNTLYLQMNNLKPEDTAVYYCAKATSYDSIRSGSRGQGTQVTVSSGGGGSGGGGSGGGGSEVQLVESGGGLVQTGGSLRLSCAASGGTFSRDAMAWFRQVPGKEREFVALISWSGATTNYADSVKGRFAISRDNGKNTVYLQMNRLKPADTAIYYCAADRRPMGSRSYFEPTEYDDWGQGTQVTVSSGGGGSGGGGSGGGGSDKTHTCPPCPAPEAAGGPSVFLFPPKPKDTLMISRTPEVTCVVVDVSHEDPEVKFNWYVDGVEVHNAKTKPREEQYNSTYRVVSVLTVLHQDWLNGKEYKCKVSNKALGAPIEKTISKAKGQPREPQVYTLPPSRDELTKNQVSLTCLVKGFYPSDIAVEWESNGQPENNYKTTPPVLDSDGSFLLYSKLTVDKSRWQQGNVFSCSVMHEALHNHYTQKSLSLSPGK
chain 2: QVQLVESGGGLVQPGGSLRLSCATSGFTFRNNFMSWVRQAPGKGLEWVSTISYGGESTTYAESVKGRFTISRDNAKNTLYLQMNNLKPEDTAVYYCAKATSYDSIRSGSRGQGTQVTVSSGGGGSGGGGSGGGGSQVQLVESGGGLVQAGGSLTLSCAAPGRTFGTDVVGWFRQAPGKEREFVASISRSGDGIYYDDSVKGRFTISRNNAWNTVNLQMNSLKVEDTAVYYCAAGDGWSTYDYWGQGTQVTVSSGGGGSGGGGSGGGGSDKTHTCPPCPAPEAAGGPSVFLFPPKPKDTLMISRTPEVTCVVVDVSHEDPEVKFNWYVDGVEVHNAKTKPREEQYNSTYRVVSVLTVLHQDWLNGKEYKCKVSNKALGAPIEKTISKAKGQPREPQVYTLPPSRDELTKNQVSLTCLVKGFYPSDIAVEWESNGQPENNYKTTPPVLDSDGSFFLYSRLTVDKSRWQQGNVFSCSVMHEALHNHYTQKSLSLSPGK
EC50 (nM) pSTAT5, NK, human PBMCs [1]: 0.645 nM
EC50 (nM) pSTAT5, Treg, human PBMCs [1]: 0.00334 nM
Fold Max signal (% pSTAT5+) Treg/NK [1]: 7 fold
Max signal (% pSTAT5+), NK [1]: 8 % pSTAT5+
Max signal (% pSTAT5+), Treg [1]: 56 % pSTAT5+
fold EC50 NK/Treg [1]: 193 fold
EC50 (nM) pSTAT5, NK, human PBMCs [2]: 0.769 nM
EC50 (nM) pSTAT5, Treg, human PBMCs [2]: 0.00215 nM
Fold Max signal (% pSTAT5+) Treg/NK [2]: 8 fold
Max signal (% pSTAT5+), NK [2]: 2.49 % pSTAT5+
Max signal (% pSTAT5+), Treg [2]: 19.8 % pSTAT5+
fold EC50 NK/Treg [2]: 358 fold

B2: TsVHH-48 (other)
chain 1: QVQLVESGGGLVQPGGSLRLSCATSGFTFRNNFMSWVRQAPGKGLEWVSTISYGGESTTYAESVKGRFTISRDNAKNTLYLQMNNLKPEDTAVYYCAKATSYDSIRSGSRGQGTQVTVSSDKTHTCPPCPAPEAAGGPSVFLFPPKPKDTLMISRTPEVTCVVVDVSHEDPEVKFNWYVDGVEVHNAKTKPREEQYNSTYRVVSVLTVLHQDWLNGKEYKCKVSNKALGAPIEKTISKAKGQPREPQVYTLPPSRDELTKNQVSLTCLVKGFYPSDIAVEWESNGQPENNYKTTPPVLDSDGSFFLYSRLTVDKSRWQQGNVFSCSVMHEALHNHYTQKSLSLSPGK
chain 2: QVQLVESGGGLVQAGGSLTLSCAAPGRTFGTDVVGWFRQAPGKEREFVASISRSGDGIYYDDSVKGRFTISRNNAWNTVNLQMNSLKVEDTAVYYCAAGDGWSTYDYWGQGTQVTVSSGGGGSGGGGSGGGGSGSEVQLVESGGGLVQTGGSLRLSCAASGGTFSRDAMAWFRQVPGKEREFVALISWSGATTNYADSVKGRFAISRDNGKNTVYLQMNRLKPADTAIYYCAADRRPMGSRSYFEPTEYDDWGQGTQVTVSSGGGGSGGGGSGGGGSTVSSDKTHTCPPCPAPEAAGGPSVFLFPPKPKDTLMISRTPEVTCVVVDVSHEDPEVKFNWYVDGVEVHNAKTKPREEQYNSTYRVVSVLTVLHQDWLNGKEYKCKVSNKALGAPIEKTISKAKGQPREPQVYTLPPSRDELTKNQVSLTCLVKGFYPSDIAVEWESNGQPENNYKTTPPVLDSDGSFLLYSKLTVDKSRWQQGNVFSCSVMHEALHNHYTQKSLSLSPGK
EC50 (nM) pSTAT5, NK, human PBMCs [1]: 2.59 nM
EC50 (nM) pSTAT5, Treg, human PBMCs [1]: 0.0118 nM
Fold Max signal (% pSTAT5+) Treg/NK [1]: 5 fold
Max signal (% pSTAT5+), NK [1]: 20 % pSTAT5+
Max signal (% pSTAT5+), Treg [1]: 95 % pSTAT5+
fold EC50 NK/Treg [1]: 220 fold
EC50 (nM) pSTAT5, NK, human PBMCs [2]: 1.14 nM
EC50 (nM) pSTAT5, Treg, human PBMCs [2]: 0.00195 nM
Fold Max signal (% pSTAT5+) Treg/NK [2]: 8 fold
Max signal (% pSTAT5+), NK [2]: 8.26 % pSTAT5+
Max signal (% pSTAT5+), Treg [2]: 64.1 % pSTAT5+
fold EC50 NK/Treg [2]: 583 fold

B3: DC00068 (other)
chain 1: EVQLVESGGGLVQTGGSLRLSCAASGGTFSRDAMAWFRQVPGKEREFVALISWSGATTNYADSVKGRFAISRDNGKNTVYLQMNRLKPADTAIYYCAADRRPMGSRSYFEPTEYDDWGQGTQVTVSSGGGGSGGGGSGGGGSQVQLVESGGGLVQPGGSLRLSCATSGFTFRNNFMSWVRQAPGKGLEWVSTISYGGESTTYAESVKGRFTISRDNAKNTLYLQMNNLKPEDTAVYYCAKATSYDSIRSGSRGQGTQVTVSSDKTHTCPPCPAPEAAGGPSVFLFPPKPKDTLMISRTPEVTCVVVDVSHEDPEVKFNWYVDGVEVHNAKTKPREEQYNSTYRVVSVLTVLHQDWLNGKEYKCKVSNKALGAPIEKTISKAKGQPREPQVYTLPPSRDELTKNQVSLTCLVKGFYPSDIAVEWESNGQPENNYKTTPPVLDSDGSFLLYSKLTVDKSRWQQGNVFSCSVMHEALHNHYTQKSLSLSPGK
chain 2: QVQLVESGGGLVQAGGSLTLSCAAPGRTFGTDVVGWFRQAPGKEREFVASISRSGDGIYYDDSVKGRFTISRNNAWNTVNLQMNSLKVEDTAVYYCAAGDGWSTYDYWGQGTQVTVSSGGGGSGGGGSGGGGSQVQLVESGGGLVQPGGSLRLSCATSGFTFRNNFMSWVRQAPGKGLEWVSTISYGGESTTYAESVKGRFTISRDNAKNTLYLQMNNLKPEDTAVYYCAKATSYDSIRSGSRGQGTQVTVSSGGGGSGGGGSGGGGSEVQLVESGGGLVQTGGSLRLSCAASGGTFSRDAMAWFRQVPGKEREFVALISWSGATTNYADSVKGRFAISRDNGKNTVYLQMNRLKPADTAIYYCAADRRPMGSRSYFEPTEYDDWGQGTQVTVSSGGGGSGGGGSGGGGSDKTHTCPPCPAPEAAGGPSVFLFPPKPKDTLMISRTPEVTCVVVDVSHEDPEVKFNWYVDGVEVHNAKTKPREEQYNSTYRVVSVLTVLHQDWLNGKEYKCKVSNKALGAPIEKTISKAKGQPREPQVYTLPPSRDELTKNQVSLTCLVKGFYPSDIAVEWESNGQPENNYKTTPPVLDSDGSFFLYSRLTVDKSRWQQGNVFSCSVMHEALHNHYTQKSLSLSPGK
EC50 (nM) pSTAT5, NK, human PBMCs [1]: 0.0936 nM
EC50 (nM) pSTAT5, Treg, human PBMCs [1]: 0.00189 nM
Fold Max signal (% pSTAT5+) Treg/NK [1]: 6 fold
Max signal (% pSTAT5+), NK [1]: 14 % pSTAT5+
Max signal (% pSTAT5+), Treg [1]: 83 % pSTAT5+
fold EC50 NK/Treg [1]: 49 fold
EC50 (nM) pSTAT5, NK, human PBMCs [2]: 0.00127 nM
EC50 (nM) pSTAT5, Treg, human PBMCs [2]: 0.425 pM
Fold Max signal (% pSTAT5+) Treg/NK [2]: 9 fold
Max signal (% pSTAT5+), NK [2]: 3.39 % pSTAT5+
Max signal (% pSTAT5+), Treg [2]: 30 % pSTAT5+
fold EC50 NK/Treg [2]: 3 fold

B4: FJ1427_P035MP02E03 (VHH)
VHH: EVQLVESGGGSVQTGGSLRLSCVVSGSHFISDVMGWYRQVPGKQRELVADMADGGSVKYGDSVKGRFTILRDSVKNTVTLQMSSLNPEDTGVYYCKAGLWITGRHFDYWGQGTQVTVTS
notes: soluble VHH in periplasmic extract; also called clone nr
koff (human IL-2Rβ [3]): 0.000169 s⁻¹
P.E. binding ELISA OD (human IL-2Rβ [4]): 0.242 OD450 nm

B5: FJ1427_P035MP02F03 (VHH)
VHH: EVQLVESGGGLVQAGGSLRLSCAASGGTFSSYAMGWFRQAPGKEREFVAATTRGGGRTMYAVSTEGRFTCSRDNAKNTVYLLMNSLKPEDTAVYYCAAMTSYYSGTYYPDSSDFDIWGQGTQVTVSS
notes: as for B4
koff (human IL-2Rβ [3]): 0.000828 s⁻¹
P.E. binding ELISA OD (human IL-2Rβ [4]): 0.212 OD450 nm

B6: FJ1427 P035MP02H04 (VHH)
VHH: QVQLVESGGGLVQAGDSLRLSCATSGLTFSSYALGWFRQAPGKKREFVAATTRGGGRTMYAVSTEGRFTCSRDNDKNTVYLLMNSLKPKDTAVYYCAAMTSYYSGTYYPDSSDFDIWGQGTQVTVSS
notes: as for B4
koff (human IL-2Rβ [3]): 0.00051 s⁻¹
P.E. binding ELISA OD (human IL-2Rβ [4]): 0.376 OD450 nm
